From US20030203869A1 come the findings set out here.

By IC50 is commonly meant the concentration at which inhibition is half-maximal. High values mean lower potency, low ones higher potency.

Assay [1] has as its target purified HLA-A2.1 molecules (human). Briefly: inhibition of binding of a labeled reference peptide to purified HLA-A2.1. The settings on record: remark: other sources report otherwise.
The target in assay [2] is purified HLA-A11 molecules (human). Briefly: inhibition of binding of a labeled reference peptide to purified HLA-A11.

In assay [1], WLSLLVPFV (modifications not checked) [HBV Env 335 (HBV env 335-343) CTL epitope peptide …] had an IC50 of 5 nM.

Molecule TVYYGVPVWK (modifications not checked) [HIV Env 49 (HIV env 49-58) CTL epitope peptide …] had an IC50 in assay [2] of 4 nM.
